{"source": "paper PMC4632185", "about": "“Mechanistic basis of Nek7 activation through Nek9 binding and induced dimerization” (Nature Communications, 2015)", "binders": {"B1": {"name": "GST-Nek9 810–828 (domain or fragment, human, UniProt Q8TD19 810-828, looked up)", "chain": "GWLRKELENAEFIPMPDSP", "notes": "source: E. coli, purified (glutathione sepharose)"}, "B2": {"name": "GST-Nek9-CTD (aa 726–979) (domain or fragment, human, UniProt Q8TD19 726-979, looked up)", "chain": "KVLNSKTIRSNSSGLSIGTVFQSSSPGGGGGGGGGEEEDSQQESETPDPSGGFRGTMEADRGMEGLISPTEAMGNSNGASSSCPGWLRKELENAEFIPMPDSPSPLSAAFSESEKDTLPYEELQGLKVASEAPLEHKPQVEASSPRLNPAVTCAGKGTPLTPPACACSSLQVEVERLQGLVLKCLAEQQKLQQENLQIFTQLQKLNKKLEGGQQVGMHSKGTQTAKEEMEMDPKPDLDSDSWCLLGTDSCRPSL", "notes": "Nek9, human, C-terminal domain, residues 726-979; For some kinase assays the GST tag was removed with 3C protease; also called Nek9 non-catalytic C-terminal domain; N9 CTD; source: E. coli, purified (glutathione sepharose); not shown: GST, N-terminal, kept"}, "B3": {"name": "Nek7 N90A (enzyme)", "chain": "not shown"}, "B4": {"name": "Nek7 N90K (enzyme)", "chain": "not shown"}, "B5": {"name": "Nek7 N90R (enzyme)", "chain": "not shown"}, "B6": {"name": "synthetic peptide corresponding to aa 810–828 of Nek9 (peptide, UniProt Q8TD19 810-828, looked up)", "peptide": "GWLRKELENAEFIPMPDSP", "notes": "source: synthetic peptide (Peptide Synthetics)"}}, "key": {"[1]": {"molecular_target": "T1, Nek7-His6, full-length wild type, unphosphorylated (human, UniProt Q8TDX7 1-302)", "T1 construct": "Nek7 (NIMA-related kinase 7), human, full length; also called Nek7^WT; unphosphorylated Nek7^WT; source: E. coli Codonplus RPIL, co-expressed with or without λ-phosphatase, purified (HisTRAP, Superdex-200); not shown: His6, C-terminal, kept", "test": "pull-down; GST co-precipitation: 100 μg GST-Nek9 protein immobilised on glutathione sepharose-4B beads, incubated with 100 μg Nek7 in 500 μl for 1 h at 4 °C; 50 mM HEPES pH 7.5, 300 mM NaCl, 5% glycerol, 5 mM dithiothreitol, 0.05% Tween-20; Coomassie staining or immunoblot with α-His6", "settings": "both partners purified"}, "Nek7^Y97A, full length": {"molecular_target": "T2, Nek7^Y97A, full length (human, UniProt Q8TDX7 1-302, Y97A)", "T2 construct": "Nek7, human, full length; source: E. coli Codonplus RPIL, co-expressed with or without λ-phosphatase, purified (HisTRAP, Superdex-200)", "T2 sequence (Q8TDX7 whole entry Y97A)": "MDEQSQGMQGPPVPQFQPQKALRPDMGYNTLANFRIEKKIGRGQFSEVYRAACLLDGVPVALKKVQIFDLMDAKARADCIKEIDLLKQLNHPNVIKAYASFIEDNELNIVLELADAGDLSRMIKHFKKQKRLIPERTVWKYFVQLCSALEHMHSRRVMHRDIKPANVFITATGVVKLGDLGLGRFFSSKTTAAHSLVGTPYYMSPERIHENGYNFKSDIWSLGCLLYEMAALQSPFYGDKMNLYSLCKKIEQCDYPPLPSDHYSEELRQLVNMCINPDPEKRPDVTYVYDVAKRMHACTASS", "test": "pull-down; GST co-precipitation: 100 μg GST-Nek9 protein immobilised on glutathione sepharose-4B beads, incubated with 100 μg Nek7 in 500 μl for 1 h at 4 °C; 50 mM HEPES pH 7.5, 300 mM NaCl, 5% glycerol, 5 mM dithiothreitol, 0.05% Tween-20; Coomassie staining or immunoblot with α-His6", "settings": "both partners purified"}, "Nek7 N90K": {"molecular_target": "B4", "test": "pull-down; GST co-precipitation: 100 μg GST-Nek9 protein immobilised on glutathione sepharose-4B beads, incubated with 100 μg Nek7 in 500 μl for 1 h at 4 °C; 50 mM HEPES pH 7.5, 300 mM NaCl, 5% glycerol, 5 mM dithiothreitol, 0.05% Tween-20; Coomassie staining or immunoblot with α-His6", "settings": "both partners purified"}, "phosphorylated Nek7^WT": {"molecular_target": "T3, phosphorylated Nek7^WT (human, UniProt Q8TDX7 1-302, phosphorylated (sites not stated for this preparation))", "T3 construct": "Nek7, human, full length; also called phospho-Nek7^WT; source: E. coli Codonplus RPIL, co-expressed with or without λ-phosphatase, purified (HisTRAP, Superdex-200)", "test": "pull-down; GST co-precipitation: 100 μg GST-Nek9 protein immobilised on glutathione sepharose-4B beads, incubated with 100 μg Nek7 in 500 μl for 1 h at 4 °C; 50 mM HEPES pH 7.5, 300 mM NaCl, 5% glycerol, 5 mM dithiothreitol, 0.05% Tween-20; Coomassie staining or immunoblot with α-His6", "settings": "both partners purified"}, "Nek7 N90A": {"molecular_target": "B3", "test": "pull-down; GST co-precipitation: 100 μg GST-Nek9 protein immobilised on glutathione sepharose-4B beads, incubated with 100 μg Nek7 in 500 μl for 1 h at 4 °C; 50 mM HEPES pH 7.5, 300 mM NaCl, 5% glycerol, 5 mM dithiothreitol, 0.05% Tween-20; Coomassie staining or immunoblot with α-His6", "settings": "both partners purified"}, "Nek7 K96E": {"molecular_target": "T4, Nek7 K96E (human, UniProt Q8TDX7 1-302, K96E)", "T4 construct": "Nek7, human, full length; source: E. coli Codonplus RPIL, co-expressed with or without λ-phosphatase, purified (HisTRAP, Superdex-200)", "T4 sequence (Q8TDX7 whole entry K96E)": "as the sequence (Q8TDX7 whole entry Y97A) above, with K96E, A97Y counted along it", "test": "pull-down; GST co-precipitation: 100 μg GST-Nek9 protein immobilised on glutathione sepharose-4B beads, incubated with 100 μg Nek7 in 500 μl for 1 h at 4 °C; 50 mM HEPES pH 7.5, 300 mM NaCl, 5% glycerol, 5 mM dithiothreitol, 0.05% Tween-20; Coomassie staining or immunoblot with α-His6", "settings": "both partners purified"}, "Nek7 N90R": {"molecular_target": "B5", "test": "pull-down; GST co-precipitation: 100 μg GST-Nek9 protein immobilised on glutathione sepharose-4B beads, incubated with 100 μg Nek7 in 500 μl for 1 h at 4 °C; 50 mM HEPES pH 7.5, 300 mM NaCl, 5% glycerol, 5 mM dithiothreitol, 0.05% Tween-20; Coomassie staining or immunoblot with α-His6", "settings": "both partners purified"}, "Nek7^Y97F, full length [2]": {"molecular_target": "T5, Nek7^Y97F, full length (human, UniProt Q8TDX7 1-302, Y97F)", "T5 construct": "Nek7, human, full length; residues 20-300 modelled in the structure; source: E. coli Codonplus RPIL, co-expressed with or without λ-phosphatase, purified (HisTRAP, Superdex-200)", "T5 sequence (Q8TDX7 whole entry Y97F, the tested form may be a part)": "as the sequence (Q8TDX7 whole entry Y97A) above, with A97F counted along it", "test": "pull-down; GST co-precipitation: 100 μg GST-Nek9 protein immobilised on glutathione sepharose-4B beads, incubated with 100 μg Nek7 in 500 μl for 1 h at 4 °C; 50 mM HEPES pH 7.5, 300 mM NaCl, 5% glycerol, 5 mM dithiothreitol, 0.05% Tween-20; Coomassie staining or immunoblot with α-His6", "settings": "both partners purified"}, "[3]": {"molecular_target": "the molecule itself", "test": "cell-based or functional assay"}, "Nek7^Y97F, full length [4]": {"molecular_target": "T5, Nek7^Y97F, full length", "test": "crystal structure; co-crystallisation by sitting drop vapour diffusion, Nek7^Y97F at 440 μM and Nek9 peptide at 880 μM; 0.2 M potassium thiocyanate, 0.1 M bis-Tris propane pH 7.5, 20% PEG 3350; 2.78 Å, space group P3_(1) 2 1", "settings": "both partners purified"}}}
{"binder": "B1", "values": [{"measurement": "binding result", "setting": "[1]", "value": "binds"}]}
{"binder": "B2", "values": [{"measurement": "binding result", "setting": "Nek7^Y97A, full length", "value": "binds"}, {"measurement": "binding result", "setting": "Nek7 N90K", "value": "binds"}, {"measurement": "binding result", "setting": "phosphorylated Nek7^WT", "value": "binds"}, {"measurement": "binding result", "setting": "Nek7 N90A", "value": "binds"}, {"measurement": "binding result", "setting": "Nek7 K96E", "value": "binds"}, {"measurement": "binding result", "setting": "Nek7 N90R", "value": "binds"}, {"measurement": "binding result", "setting": "Nek7^Y97F, full length [2]", "value": "binds"}, {"measurement": "binding result", "setting": "[1]", "value": "binds"}]}
{"binder": "B3", "values": [{"measurement": "fold decrease in in vitro kinase activity of the initially unphosphorylated Nek7 mutant, against WT (32P incorporation, scintillation counting)", "setting": "[3]", "value": "~2", "unit": "fold"}]}
{"binder": "B4", "values": [{"measurement": "in vitro kinase activity of the initially unphosphorylated Nek7 mutant, in the presence or absence of Nek9-CTD, against WT (32P incorporation, scintillation counting)", "setting": "[3]", "value": "≤ 10", "unit": "fold"}]}
{"binder": "B5", "values": [{"measurement": "in vitro kinase activity of the initially unphosphorylated Nek7 mutant, in the presence or absence of Nek9-CTD, against WT (32P incorporation, scintillation counting)", "setting": "[3]", "value": "≤ 10", "unit": "fold"}]}
{"binder": "B6", "values": [{"measurement": "binding result", "setting": "Nek7^Y97F, full length [4]", "value": "binds"}]}
